Experiments:
[1] = target: Kelch-like ECH-associated protein 1 (Keap1), Cy3-labeled (UniProt Q14145); experiment: MST; Monolith NT.115; Cy3-labeled Keap1 at constant concentration, MNT titrated; 25 mM sodium phosphate, 150 mM NaCl, pH 8.0
[2] = target: epidermal growth factor receptor (EGFR) on A431 cells (human (endogenous in A431)) (UniProt P00533); experiment: fluorescent-labeled ligand competitive binding on cells (plate reader); A431 cells fixed with 0.5% paraformaldehyde in 48-well plates; 25 nM Alexa-647-labeled MNT1 and different concentrations of MNTC or MNTN; DMEM with 1% BSA, 15 mM HEPES, pH 7.3, overnight at +4 °C
[3] = target: α/β importin complex labeled with Cy3 (UniProt Q14974); experiment: MST; Cy3-labeled β-importin in the α/β importin complex at constant concentration, MNT titrated; 20 mM HEPES, 110 mM KCl, 5 mM NaHCO3, 5 mM MgCl2, 0.1 mM CaCl2, 1 mM EGTA, 1 mM DTT, pH 7.4
Sequence of UniProt Q14974 (Q14974 whole entry, looked up, one chain of several): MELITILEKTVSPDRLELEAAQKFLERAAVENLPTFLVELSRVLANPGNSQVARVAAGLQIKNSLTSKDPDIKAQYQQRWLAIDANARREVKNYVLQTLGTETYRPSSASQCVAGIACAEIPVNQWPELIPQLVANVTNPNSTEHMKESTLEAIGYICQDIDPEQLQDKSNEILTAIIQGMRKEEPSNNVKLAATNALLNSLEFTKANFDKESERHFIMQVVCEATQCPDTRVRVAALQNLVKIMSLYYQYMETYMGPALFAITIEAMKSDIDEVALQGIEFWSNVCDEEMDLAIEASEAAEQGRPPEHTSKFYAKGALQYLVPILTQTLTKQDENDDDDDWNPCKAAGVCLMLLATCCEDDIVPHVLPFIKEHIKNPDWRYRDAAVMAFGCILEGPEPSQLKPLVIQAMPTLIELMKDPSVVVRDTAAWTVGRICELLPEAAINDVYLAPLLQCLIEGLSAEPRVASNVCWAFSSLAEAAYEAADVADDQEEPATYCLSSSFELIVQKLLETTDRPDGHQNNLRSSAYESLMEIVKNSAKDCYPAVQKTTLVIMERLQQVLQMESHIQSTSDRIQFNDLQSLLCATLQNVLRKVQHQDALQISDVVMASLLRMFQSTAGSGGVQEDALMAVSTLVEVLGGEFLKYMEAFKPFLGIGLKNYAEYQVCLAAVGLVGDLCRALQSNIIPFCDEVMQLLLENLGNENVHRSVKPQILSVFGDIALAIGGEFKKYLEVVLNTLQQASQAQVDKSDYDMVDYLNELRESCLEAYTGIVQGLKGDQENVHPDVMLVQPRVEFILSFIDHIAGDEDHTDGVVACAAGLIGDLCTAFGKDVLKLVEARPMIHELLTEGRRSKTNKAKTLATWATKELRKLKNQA

Sequence of UniProt Q14145 (Q14145 whole entry): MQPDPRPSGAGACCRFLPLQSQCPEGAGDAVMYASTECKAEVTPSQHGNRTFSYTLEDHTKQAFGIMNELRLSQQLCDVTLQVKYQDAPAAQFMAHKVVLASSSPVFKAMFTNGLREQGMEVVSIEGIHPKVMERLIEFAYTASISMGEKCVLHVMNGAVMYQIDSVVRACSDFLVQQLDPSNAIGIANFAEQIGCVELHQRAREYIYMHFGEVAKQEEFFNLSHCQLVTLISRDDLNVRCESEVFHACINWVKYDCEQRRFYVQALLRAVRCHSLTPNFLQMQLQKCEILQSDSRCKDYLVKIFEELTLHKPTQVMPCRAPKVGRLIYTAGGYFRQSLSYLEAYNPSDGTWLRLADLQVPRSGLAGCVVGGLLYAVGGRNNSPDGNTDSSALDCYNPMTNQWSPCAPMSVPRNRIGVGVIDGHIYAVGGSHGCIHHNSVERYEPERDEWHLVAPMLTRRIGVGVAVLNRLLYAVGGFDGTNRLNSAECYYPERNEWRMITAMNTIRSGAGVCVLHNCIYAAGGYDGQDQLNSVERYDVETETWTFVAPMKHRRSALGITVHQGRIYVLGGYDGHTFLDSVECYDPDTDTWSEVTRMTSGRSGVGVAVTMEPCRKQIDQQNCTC

Row | Substance | Kd [1] | Kd [2] | Kd [3]
1 | DTox-HMP-NLS-EGF (original modular nanotransporter with full-size HMP carrier module) (from UniProt P24232 1-396) | 205 nM |  | 
2 | DTox-HMPN-NLS-EGF (modular nanotransporter with the N-terminal fragment of HMP) (from UniProt P24232 1-136) | 428 nM | 20 nM | 160 nM
